The record followed here is publication PMC7308715.

In the test the target is N-ribosyltransferase from Archaeoglobus veneficus SNP6 (AvNRT) (Archaeoglobus veneficus SNP6). In words: AUC; sedimentation velocity; 20 mM Tris-HCl, pH 8, 20 °C, 50,000 x g; profiles recorded at 292 nm; c(s) analysis with SEDFIT.

Consider “N-ribosyltransferase from Archaeoglobus veneficus SNP6 (AvNRT) (enzyme)”, for which the stoichiometry N amounted to 4.
